Measured values: PMC9388126 (Proceedings of the National Academy of Sciences of the …, 2022)

B1: zebrafish GNPTAB minimal construct (catalytic and EF-hand domains) (domain or fragment)
chain: EVVVEWSRDQYHVLFDSYRDNVAGKSFQTRLCLPMPIDVVYTWVNGTDPKLIKEVTELKRSKRDPLIPECQGKQTPEKDKCYRDDNTASRFEDNEELRYSLRSIEKHAPWVRHIFIVTNGQIPSWLNLDNPRVSVVTHQDIFQNQTHLPTFSSPAIETHIHRIPGLSQKFIYLNDDVMFGKDVWPDDFYSHSKGQKVYLTWPVPNDTFADSLRYVNRLLNAQFGFTSRKVPAHMPHMIDRLIMQELQDTFPQEFDKTSSHRVRHSEDMQFAFSYFYFLMSAVQQLNISEVFDEIDTDHSGVLSDREIRTLATRIHELPLSLQDLTSLEQMLINCSKSLPSNLTHLHAVSPTQEAYYDPSMPPVTKGLVIHCKPITERIHKAFKDQNKYKFEIMGEEEIAFKMIRTNVSHVVGQLDDIRKNPRKFICLNDNIDHIHKDAGTVKAVLRDFYESMFPLPSQFELPREYRNRFLHMTELQEWRIYRDKL
modifications: N-linked glycans (up to five visible on each chain)

Key:
[1] = biological target: clawed frog GNPTG (gamma subunit of GNPT) (clawed frog (Xenopus laevis)); assay: crystal structure
crystal structure = biological target: the molecule itself; assay: crystal structure

Molecule	stoichiometry N [1]	stoichiometry N (crystal structure)
clawed frog GNPTG (gamma subunit of GNPT) (natural protein)	2	
B1		2
